This passage reports Kd, koff and kon results from patent publication US20240052006A1 (UNIVERSITY OF CHICAGO, published 2024).

In general, Kd refers to the equilibrium constant for the complex coming apart. A low value points to tighter binding. The term koff denotes the rate constant with which the complex falls apart. Low values mean slow dissociation, high ones fast dissociation. What is called kon is a measure of how fast the partners come together. The low end stands for slow association, the high end for fast association.

This experiment addresses T1, mouse plasma-derived SA (mouse SA, Sigma-Aldrich) (mouse, UniProt P07724 25-608).
T1 construct: The SA in the SPR assay was bought (Sigma-Aldrich, plasma-derived, without IL-4); It is not tied to the bought lot by name; also called mouse serum albumin; MSA
The experiment can be described thus: SPR (Biacore X100): murine FcRn immobilised by amine coupling on a C1 chip, mouse SA flowed at 4000 to 250 nM in pH 5.8 running buffer; Langmuir fit. Here is the method:
Murine FcRn recombinant protein (Acro Biosystems) was immobilized via amine coupling on a C1 chip (GE Healthcare) for ˜200 resonance units (RU) according to the manufacturer's instructions. SA-IL4 or SA (mouse SA, Sigma-Aldrich) was flowed at decreasing concentrations in the running buffer (0.01 M monobasic anhydrous sodium phosphate, pH 5.8, 0.15 M NaCl) at 30 μl/min. The sensor chip was regenerated with PBS, pH 7.4 for every cycle. Specific bindings of SA fusion proteins to FcRn were calculated by comparison to a non-functionalized channel used as a reference. Experimental results were fitted with Langmuir binding kinetics using BIAevaluation software (GE Healthcare).

B1: Murine FcRn recombinant protein (Acro Biosystems) (receptor, mouse)
chain 1: SETRPPLMYHLTAVSNPSTGLPSFWATGWLGPQQYLTYNSLRQEADPCGAWMWENQVSWYWEKETTDLKSKEQLFLEALKTLEKILNGTYTLQGLLGCELASDNSSVPTAVFALNGEEFMKFNPRIGNWTGEWPETEIVANLWMKQPDAARKESEFLLNSCPERLLGHLERGRRNLEWKEPPSMRLKARPGNSGSSVLTCAAFSFYPPELKFRFLRNGLASGSGNCSTGPNGDGSFHAWSLLEVKRGDEHHYQCQVEHEGLAQPLTVDLDSSARSS
chain 2: IQKTPQIQVYSRHPPENGKPNILNCYVTQFHPPHIEIQMLKNGKKIPKVEMSDMSFSKDWSFYILAHTEFTPTETDTYACRVKHASMAEPKTVYWDRDM
notes: Bought from Acro Biosystems and immobilised by amine coupling on a C1 chip; also called Recombinant mouse FcRn; neonatal Fc receptor
As to B1, the Kd stood at 0.294 µM, the dissociation rate constant (koff) was 0.0011 s⁻¹ and the kon turned out to be 3700 M⁻¹ s⁻¹.
